Test results: US20020156245A1 (Genentech, published 2002)

B1: Dhh (SEQ ID NO:13) (ligand)
chain: not shown
notes: also called Desert Hh; Desert hedgehog
B2: Ihh (SEQ ID NO:29) (ligand)
chain: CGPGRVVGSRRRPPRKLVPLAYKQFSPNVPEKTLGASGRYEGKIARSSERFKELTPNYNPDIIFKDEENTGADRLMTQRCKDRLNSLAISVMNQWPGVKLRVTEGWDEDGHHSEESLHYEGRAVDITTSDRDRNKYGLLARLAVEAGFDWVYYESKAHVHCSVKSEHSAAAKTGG
notes: also called Indian Hh

Biological target: T1, human Ptch-2 (SEQ ID NO:2) (human, UniProt Q9Y6C5 1-1203)
T1 construct: Its length is printed as 1203 residues in some places and 1204 in others; also called hPtch-2; patched-2
T1 sequence: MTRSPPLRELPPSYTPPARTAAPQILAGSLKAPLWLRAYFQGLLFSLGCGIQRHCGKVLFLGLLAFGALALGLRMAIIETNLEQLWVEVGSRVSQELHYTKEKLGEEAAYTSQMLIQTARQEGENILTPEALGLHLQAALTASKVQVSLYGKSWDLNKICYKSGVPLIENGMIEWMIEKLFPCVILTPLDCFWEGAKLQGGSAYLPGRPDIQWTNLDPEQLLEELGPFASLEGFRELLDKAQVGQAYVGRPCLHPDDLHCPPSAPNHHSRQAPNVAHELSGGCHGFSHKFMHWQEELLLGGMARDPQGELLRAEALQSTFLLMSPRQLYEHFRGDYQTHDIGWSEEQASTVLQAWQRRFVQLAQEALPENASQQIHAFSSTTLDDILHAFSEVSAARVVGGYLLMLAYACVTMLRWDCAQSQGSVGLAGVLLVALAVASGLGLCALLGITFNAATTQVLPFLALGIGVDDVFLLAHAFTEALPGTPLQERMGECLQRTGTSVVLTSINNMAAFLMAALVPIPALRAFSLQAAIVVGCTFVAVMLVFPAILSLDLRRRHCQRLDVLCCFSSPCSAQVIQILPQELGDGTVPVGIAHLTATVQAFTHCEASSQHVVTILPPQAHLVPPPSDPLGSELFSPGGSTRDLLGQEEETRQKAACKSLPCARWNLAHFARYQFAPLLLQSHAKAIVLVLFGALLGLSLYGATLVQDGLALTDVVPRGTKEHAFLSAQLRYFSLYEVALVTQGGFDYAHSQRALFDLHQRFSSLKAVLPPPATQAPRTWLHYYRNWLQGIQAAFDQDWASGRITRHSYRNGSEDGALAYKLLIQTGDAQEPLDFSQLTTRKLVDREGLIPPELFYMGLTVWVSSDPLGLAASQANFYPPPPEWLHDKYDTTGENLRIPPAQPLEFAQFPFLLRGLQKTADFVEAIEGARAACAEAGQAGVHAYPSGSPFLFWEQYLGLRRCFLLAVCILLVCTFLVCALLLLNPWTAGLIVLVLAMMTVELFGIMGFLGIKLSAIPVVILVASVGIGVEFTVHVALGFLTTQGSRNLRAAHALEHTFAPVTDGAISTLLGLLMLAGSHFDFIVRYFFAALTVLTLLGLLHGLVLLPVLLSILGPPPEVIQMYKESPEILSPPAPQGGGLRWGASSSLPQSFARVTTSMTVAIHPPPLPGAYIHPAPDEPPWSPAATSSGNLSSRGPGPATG
Test: Scatchard analysis of displacement of 125I-Shh from 293 cells expressing Ptch-2
Procedure: As shown on FIG. 7A, binding of ¹²⁵I-Shh can be competed with an excess of Shh, Dhh or Ihh (SEQ ID NOS: 14, 13, and 29, respectively).
To determine whether Ptch-2 is able to bind to the various hedgehog ligands, 293 cells were transfected with Ptch (SEQ ID NO:4) or Ptch-2 (SEQ ID NO:2) using standard procedures. Cells were incubated with 100 pM ¹²⁵I-Shh (19 kD amino terminal fragment of murine Shh (SEQ ID NO:14)) in the presence or absence of excess unlabeled Shh (SEQ ID NO:14) or Dhh (SEQ ID NO:13) for 2 h at room temperature. After equilibrium was reached, the ligand bound cells were centrifuged through a continuous sucrose gradient to separate unincorporated and then counted in a scintillation counter. […] Varying concentrations of cold competitor indicate that the 2 ligands have similar affinity for Ptch (SEQ ID NO:4) and Ptch-2 (SEQ ID NO:2).

| Binder | Kd [pM] |
| --- | --- |
| B1 | 600 |
| B2 | 400 |
